From patent US20110152352, “SMAD PROTEINS CONTROL DROSHA-MEDIATED MIRNA MATURATION” (Tufts University, published 2011)

What was measured:
Smad1 MH1 domain [1] = biological target: T1, Smad1 MH1 domain (UniProt Q15797 Q15797:1-219); assay: pulldown; excess yeast tRNA; settings: tags: GST fusion, E. coli
Experimental: (§1) To examine the interaction of SMAD proteins with double stranded CAGAC sequences of miRNA we performed RNA pull down experiments. Gst-Smad fusion proteins were expressed in E. coli and partially purified. As a proof of principal, we used mature miR-21 sequences (see below). ssRNA oligonucleotides were annealed to make dsRNA. GST-Pull down experiments were performed using the standard methods including aspects of those disclosed herein in the presence of excess amount of non-specific RNAa (yeast tRNAs). Full length GST-SMAD1 fusion protein and a GST-SMAD1 N-terminal (n219) MH1 domain interact with double stranded CAGAC sequences of miR-21
(§2) In vitro GST-SMAD-RNA pull down assay: GST-smad fusion proteins were expressed in E. coli, isolated and bound to glutathione S-sepharose beads. Following partial purification, Smad bound beads were washed 4×5 min at 4° C. in wash buffer (10 mM Tris-HCl pH 7.6, 0.5M LiCl, 0.1% triton) and 1×10 at 4° C. in binding buffer (20 mM Tris-HCl pH 7.6, 0.1M KCl, 0.1% Tween-20, 0.1% Triton). […] RNA was re-suspended in 20 μl water and 1 μl was used in a reverse transcriptase reaction followed by quantitative real time PCR to detect relative levels of RNA binding to Smad-GST fusion proteins.

Smad1 full length [2] = biological target: T2, Smad1 full length (UniProt Q15797 Q15797:1-465); assay: pulldown; excess yeast tRNA; settings: tags: GST fusion, E. coli
T2 sequence (Q15797 whole entry, the tested form may be a part, one chain of several): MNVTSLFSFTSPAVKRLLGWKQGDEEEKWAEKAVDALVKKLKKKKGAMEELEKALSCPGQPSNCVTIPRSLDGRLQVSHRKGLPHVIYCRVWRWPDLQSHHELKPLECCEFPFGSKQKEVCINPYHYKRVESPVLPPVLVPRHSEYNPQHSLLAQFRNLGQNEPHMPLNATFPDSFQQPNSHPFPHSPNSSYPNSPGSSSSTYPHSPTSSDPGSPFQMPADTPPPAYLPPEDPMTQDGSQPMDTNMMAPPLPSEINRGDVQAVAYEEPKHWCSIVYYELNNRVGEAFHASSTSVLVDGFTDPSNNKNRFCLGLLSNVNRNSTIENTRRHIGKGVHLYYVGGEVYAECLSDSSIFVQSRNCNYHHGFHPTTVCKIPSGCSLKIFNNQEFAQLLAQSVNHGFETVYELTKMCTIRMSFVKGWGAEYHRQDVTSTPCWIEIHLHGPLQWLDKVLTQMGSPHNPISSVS
Experimental: as §1, §2

Smad1 full length [3] = biological target: T2, Smad1 full length; assay: pulldown; tRNA and poly dI-dC, 0.1 M KCl, 4 C; settings: tags: GST fusion, E. coli
Experimental: (§3) In vitro GST-SMAD-RNA pull down assay: GST-smad fusion proteins were expressed in E. coli, isolated and bound to glutathione S-sepharose beads. Following partial purification, Smad bound beads were washed 4×5 min at 4° C. in wash buffer (10 mM Tris-HCl pH 7.6, 0.5M LiCl, 0.1% triton) and 1×10 at 4° C. in binding buffer (20 mM Tris-HCl pH 7.6, 0.1M KCl, 0.1% Tween-20, 0.1% Triton). Beads were resuspended in 100 ul binding buffer and pre-incubated with 25 ug tRNA, 1 ng poly-[dI-dC] and 2 μl RNAse inhibitor for 10 minutes before the addition of 10 pmoles synthesized mature miRNA or ˜20 pmoles in vitro transcribed 156 by pri-miR-21. Following 1 hr incubation with rocking at 4° C., beads were washed 4× with binding buffer. 2 consecutive elutions of bound RNA were performed by addition of 100 ul Elution buffer (1% SDS, 0.15M NaCl) followed by rocking at room temperature for 15 min. The eluates were combined, […] Trizol-LS (Invitrogen) was added and the RNA was purified as usual. RNA was re-suspended in 20 μl water and 1 μl was used in a reverse transcriptase reaction followed by quantitative real time PCR to detect relative levels of RNA binding to Smad-GST fusion proteins.

Smad3 full length [4] = biological target: T3, Smad3 full length (UniProt P84022 P84022:1-425); assay: pulldown; settings: tags: GST fusion, E. coli
T3 sequence (P84022 whole entry, the tested form may be a part, one chain of several): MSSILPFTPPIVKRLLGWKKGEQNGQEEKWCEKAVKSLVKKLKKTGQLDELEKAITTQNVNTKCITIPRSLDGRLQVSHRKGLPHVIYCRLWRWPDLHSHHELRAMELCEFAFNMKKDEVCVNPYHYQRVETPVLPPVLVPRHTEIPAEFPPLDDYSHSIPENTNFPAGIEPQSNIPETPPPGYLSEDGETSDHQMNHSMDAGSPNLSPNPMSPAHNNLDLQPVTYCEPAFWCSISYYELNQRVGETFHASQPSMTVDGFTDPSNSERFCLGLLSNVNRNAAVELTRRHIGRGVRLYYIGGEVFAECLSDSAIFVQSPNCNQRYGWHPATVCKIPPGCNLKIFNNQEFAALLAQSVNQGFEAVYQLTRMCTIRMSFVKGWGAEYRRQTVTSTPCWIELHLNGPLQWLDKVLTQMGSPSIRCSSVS
Experimental: as §3

Smad4 full length = Smad4 full length (UniProt Q13485 Q13485:1-552); assay: pulldown; settings: tags: GST fusion, E. coli
Sequence of Smad4 full length (Q13485 whole entry, the tested form may be a part, one chain of several): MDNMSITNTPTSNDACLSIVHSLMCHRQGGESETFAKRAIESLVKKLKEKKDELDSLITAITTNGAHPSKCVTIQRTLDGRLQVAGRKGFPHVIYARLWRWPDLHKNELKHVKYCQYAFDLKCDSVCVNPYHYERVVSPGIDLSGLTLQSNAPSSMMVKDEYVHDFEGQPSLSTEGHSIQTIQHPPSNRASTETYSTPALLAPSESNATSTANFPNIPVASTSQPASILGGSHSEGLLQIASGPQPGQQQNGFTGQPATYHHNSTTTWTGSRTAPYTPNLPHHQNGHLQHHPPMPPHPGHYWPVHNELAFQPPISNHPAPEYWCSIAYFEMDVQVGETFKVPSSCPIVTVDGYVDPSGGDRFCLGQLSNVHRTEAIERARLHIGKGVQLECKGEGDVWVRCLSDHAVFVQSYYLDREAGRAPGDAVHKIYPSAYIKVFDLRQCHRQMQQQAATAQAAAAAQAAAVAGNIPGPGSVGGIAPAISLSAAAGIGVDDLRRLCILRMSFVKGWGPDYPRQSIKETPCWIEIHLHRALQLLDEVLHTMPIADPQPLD
Experimental: as §3

Smad1 MH1 domain [5] = biological target: T1, Smad1 MH1 domain; assay: pulldown; MH1 sufficient; settings: tags: GST fusion, E. coli
Experimental: as §3

Smad3 full length [6] = biological target: T3, Smad3 full length; assay: pulldown; control duplex without CAGAC; settings: tags: GST fusion, E. coli
Experimental: as §3

Smad1 full length [7] = biological target: T2, Smad1 full length; assay: pulldown; control duplex without CAGAC; settings: tags: GST fusion, E. coli
Experimental: as §3

Smad1 MH1 domain [8] = biological target: T1, Smad1 MH1 domain; assay: pulldown; specific for miR-21 duplex; settings: tags: GST fusion, E. coli
Experimental: as §3

Smad1 = Smad1 (UniProt Q15797 Q15797:1-465); assay: RNA-ChIP; settings: tags: Flag, Cos7; hairpin with flanks
Sequence of Smad1 (Q15797 whole entry, one chain of several): as the sequence (Q15797 whole entry, the tested form may be a part, one chain of several) above
Experimental: RNA-ChIP. Was performed as previously described [Fukuda, T. et al., Nat Cell Biol 9, 604-611 (2007)]. Briefly, PASMCs or Cos7 cells were crosslinked for 15 minutes with 1% formaldehyde, the cell pellet was resuspended in Buffer A (5 mM PIPES, pH 8.0, 85 mM KCl, 0.5% Nonidet P-40). After 10 min on ice, the crude nuclei fraction was isolated by centrifugation, and then suspended in Buffer B (1% SDS, 10 mM EDTA, 50 mM Tris-HCl, pH 8.1). After nuclei were disrupted by sonication, the lysates were cleared and subjected to immunoprecipitation with anti-Flag, anti-Smad1/5/8, Smad2/3, or p68 antibody, prior to stringent washing, and elution. The RNA was isolated using Trizol (invitrogen). Pellets were resuspended in 100 μl TE and incubated with DNase I (10 U) for 30 min at 37° C. to remove any remaining DNA. Following extraction with phenol:chloroform (5:1), RNA was precipitated with ethanol and dissolved in 20 μl of water. […] of RNA was used for a 20 μl cDNA synthesis reaction. Quantitative PCR reactions were then performed by real-time PCR machine (iQ5, Bio-Rad). Average of three experiments each performed in triplicate with standard errors are presented.

T1 sequence (Q15797 1-219, one chain of several): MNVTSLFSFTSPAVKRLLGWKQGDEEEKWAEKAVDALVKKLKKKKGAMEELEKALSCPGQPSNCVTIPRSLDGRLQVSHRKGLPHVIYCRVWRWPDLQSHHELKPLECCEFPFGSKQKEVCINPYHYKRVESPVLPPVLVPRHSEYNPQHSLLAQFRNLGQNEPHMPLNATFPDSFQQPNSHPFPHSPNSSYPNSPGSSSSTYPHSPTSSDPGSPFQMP

B1: miR-21 duplex (annealed oligos) (dsRNA)
RNA 1: UAGCUUAUCAGACUGAUGUUGA
RNA 2: UCAACAUCAGUCUGAUAAGCUA
- binding result (Smad1 MH1 domain [1]): binds
- binding result (Smad1 full length [2]): binds

B2: miR-21 RNA duplex (dsRNA)
RNA 1: UAGCUUAUCAGACUGAUGUUGA
RNA 2: UCAACAUCAGUCUGAUAAGCUA
- binding result (Smad1 full length [3]): binds
- binding result (Smad3 full length [4]): binds
- binding result (Smad4 full length): no binding
- binding result (Smad1 MH1 domain [5]): binds

B3: cel-miR-67 RNA duplex (dsRNA)
RNA 1: UCACAACCUCCUAGAAAGAGUAGA
RNA 2: UCUACUCUUUCUAGGAGGUUGUGA
- binding result (Smad4 full length): no binding
- binding result (Smad3 full length [6]): no binding
- binding result (Smad1 full length [7]): no binding
- binding result (Smad1 MH1 domain [8]): no binding

B4: pri-miR-21 from pCMV-miR-21 (480 nt; hairpin sequence given) (ssRNA)
RNA: UGUCGGGUAGCUUAUCAGACUGAUGUUGACUGUUGAAUCUCAUGGCAACACCAGUCGAUGGGCUGUCUGACA
- binding signal (Smad1): 3 fold induction by BMP4
